Data taken from patent US7763418B2, “Detection of Rho proteins” (Cytoskeleton, Inc., priority 2005, dated 2010).

Biological target: T1, Rac1 (61L) binding to POSH-GBD (Homo sapiens, UniProt P63000, Q61L)
T1 construct: His; purchased Cytoskeleton Inc. R6101
Test: Rac1:POSH G-LISA competition (drug discovery application)
Protocol: Active Rho protein (typically 7-15 μg total cell lysate or 1-5 ng of constitutively active recombinant protein) were either added directly to the effector bound G-LISA plate (Rac1 and Cdc42 G-LISAs) or diluted with an equal volume of Binding Buffer (20% PEG 8000, Sigma, St. Louis, Mo.) prior to adding to effector bound plates (RhoA G-LISA). The reactions were incubated for 30 minutes at 4° C. on a microtiter titer plate shaker after which wells were washed once with 200 μl of PBST (PBS pH 7.2, 0.05% Tween-20) and immediately treated with 200 μl of Antigen Presenting Buffer (1% trichloroacetic acid (TCA)) for 2-5 minutes at room temperature. Wells were then washed three times with 200 μl each of PBST and primary antibody is added typically at 1 μg/ml (RhoA specific), 0.25 μg/ml (Rac1 specific), 1 μg/ml (Cdc42 specific) and incubated at room temperature for 45 minutes (incubation at 4° C. gave similar results). Wells are washed three times with 200 μl each of PBST and incubated with appropriate secondary antibody for 45 minutes at room temperature (incubation at 4° C. gave similar results). […] After three washes each of 200 μl PBST the activated Rho proteins are detected using absorbance or luminescence detection as described below. […]

B1: ROCK-GST: RhoA effector ROCK-GBD peptide, negative control inhibitor in Rac1:POSH G-LISA (protein)
chain: EAEQYFSTLYKTQVKELKEEIEEKNRENLKKIQELQNEKETLATQLDLAETKAESEQLARGLLEEQYFELTQESKKAASRNRQEITDKDHTVSRLEEANSMLTKDIEILRRENEELTEKMKKAEEEYKLEKEEEISNLKAAFEKNINTERTLKTQAVNKLAEIMNRKDFKIDRKKANT
modifications: left off: a dimerising Fc or GST
  IC50 relative to PAK: approximately 80 times
